This passage reports Kd results from paper PMC11014985, “TCTP regulates genotoxic stress and tumorigenicity via intercellular vesicular signaling” (EMBO Reports, 2024).

Test [1] deals with TCTP (translationally controlled tumor protein) (human) (UniProt P13693). Kind of test: SPR; Biacore 2000; TCTP amine-coupled on CM5 chip (697 RU); DDX3 injected in two-fold dilutions 0.195 to 100 nM, 30 ul/min; HBS-EP (10 mM HEPES pH 7.2, 150 mM NaCl, 3 mM EDTA, 0.005% Tween 20); 25 C; global Langmuir binding with drifting baseline.
Sequence of TCTP (translationally controlled tumor protein) (human) (P13693 whole entry): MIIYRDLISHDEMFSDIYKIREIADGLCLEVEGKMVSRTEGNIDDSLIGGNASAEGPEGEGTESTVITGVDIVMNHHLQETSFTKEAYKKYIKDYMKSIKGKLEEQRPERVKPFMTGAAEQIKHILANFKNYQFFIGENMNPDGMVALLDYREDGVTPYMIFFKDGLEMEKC
Test [2] shares this target. Nature of the test: SPR; positive control for the SPR experiments; who was immobilised and the conditions are not told for TSAP6 (Appendix Fig. S2); also run with sertraline and thioridazine. In general terms: SPR reads the build-up and loss of mass on a sensor chip optically.

As for “DDX3 wild-type (from UniProt O00571 1-662)”, the Kd in test [1] was 68.9 nM.
In test [2], “TSAP6 (Tumor Suppressor Activated Protein) (from UniProt Q658P3 1-488) (natural protein)” displayed a Kd of 1000 nM.

One may read the Kd as a measure of binding affinity in units of concentration.
